Source: article PMC5748838, “SUMO chain formation relies on the amino-terminal region of SUMO-conjugating enzyme and has dedicated substrates in plants” (Biochemical Journal, 2017)

Legend:
Test in all cases: ITC; SCE at 60 µM in the cell (300 µl loaded), SUMO1-Flag-His at 600 µM in the syringe; 20 injections; 25°C; 20 mM Tris, 5 mM MgCl2, pH 7.4; MicroCal ITC 200
Conditions in all cases: both partners purified
[1] = target: T1, Arabidopsis SUMO-conjugating enzyme SCE1, wild type (Arabidopsis, UniProt Q42551 1-160)
T1 construct: SUMO-conjugating enzyme SCE1, Arabidopsis thaliana, AT3G57870; also called SCE WT; WT SCE; source: MonoS ion exchange for ITC
T1 sequence (looked up): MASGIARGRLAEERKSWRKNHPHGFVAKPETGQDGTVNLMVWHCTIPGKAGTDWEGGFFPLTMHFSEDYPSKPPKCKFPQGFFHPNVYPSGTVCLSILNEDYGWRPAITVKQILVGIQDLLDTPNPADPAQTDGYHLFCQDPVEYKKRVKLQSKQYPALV

[2] = target: T2, SCE K28R (Arabidopsis, UniProt Q42551 1-160, K28R)
T2 construct: SUMO-conjugating enzyme SCE1, Arabidopsis thaliana, AT3G57870, with K28R; source: MonoS ion exchange for ITC
T2 sequence (looked up): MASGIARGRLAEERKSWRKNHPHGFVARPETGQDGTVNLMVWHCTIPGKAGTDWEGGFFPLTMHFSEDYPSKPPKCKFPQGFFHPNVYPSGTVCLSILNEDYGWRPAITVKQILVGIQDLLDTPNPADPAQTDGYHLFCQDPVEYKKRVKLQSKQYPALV

[3] = target: T3, SCE K15R (Arabidopsis, UniProt Q42551 1-160, K15R)
T3 construct: SUMO-conjugating enzyme SCE1, Arabidopsis thaliana, AT3G57870, with K15R; also called SCE1 K15R; source: MonoS ion exchange for ITC
T3 sequence (looked up): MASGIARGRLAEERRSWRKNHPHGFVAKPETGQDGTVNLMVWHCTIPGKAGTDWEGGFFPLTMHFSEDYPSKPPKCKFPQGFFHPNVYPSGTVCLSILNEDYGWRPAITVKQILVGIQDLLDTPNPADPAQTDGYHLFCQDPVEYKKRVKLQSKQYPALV

Kd [1]: 710 ± 230 µM | Kd [2]: 270 ± 330 µM | Kd [3]: 33 ± 17 µM
B1: SUMO1-Flag-His (natural protein, Arabidopsis, UniProt P55852 1-93, looked up)
chain: MSANQEEDKKPGDGGAHINLKVKGQDGNEVFFRIKRSTQLKKLMNAYCDRQSVDMNSIAFLFDGRRLRAEQTPDELDMEDGDEIDAMLHQTGG
notes: SUMO1 (small ubiquitin-related modifier 1), Arabidopsis; The SUMO preparations are conjugated in vitro without a protease, so the processed form ending in Gly-Gly is surmised; also called N-terminally tagged SUMO (Flag-His); source: purified (Ni2+ resin, then MonoQ ion exchange for ITC); not shown: Flag, N-terminal, kept; His, N-terminal, kept
